Source: PMC5145805, “Structural Basis for Selective Interaction between the ESCRT Regulator HD-PTP and UBAP1” (Structure(London, England:1993), 2016)
Entries after “also recorded” stand apart in the source; their conditions may differ.

What was measured:
[1] = test system: FKBP-HD-PTPBro1-CC in HeLa cells; experiment: Mitochondrial targeting (FKBP-HD-PTPBro1-CC / Mito-FRB relocalization, immunofluorescence); format: cell-based; conditions: rapamycin 1 μM, 3 hr; for relocation to mitochondria with HD-PTPBro1-CC: HeLa
Procedure: Mitochondrial targeting experiments were performed as previously described ([Sato et al., 2015]). HeLa cells were transiently transfected with HD-PTPBro1-CC containing an N-terminal FKBP sequence and a C-terminal myc tag (cloned into pcDNA5), Mito-FRB (a gift from Martin Lowe, Manchester, UK), and either GFP, WT UBAP1-GFP, or F268S UBAP1-GFP (in pEGFP). Mitochondrial relocation of FKBP-HD-PTPBro1-CC-myc was induced by addition of 1 μM rapamycin (Sigma) for 3 hr. Cells were then prepared for immunofluorescence microscopy as above. Mitochondrial relocation of GFP-tagged constructs was scored in three independent experiments (100 cells counted per experiment).

HD-PTPBro1-CC = target: T1, HD-PTPBro1-CC (Homo sapiens, UniProt Q9H3S7); experiment: Yeast two-hybrid interaction with HD-PTPBro1-CC; format: binding; conditions: Matchmaker Gold, each triplicate experiment repeated at least three times
T1 construct: HD-PTPBro1-CC (1–714) was cloned into a pET28a vector with restriction sites Nde1 and Xho1; made in house; host or cells: Escherichia coli BL21(DE3)
T1 sequence (Q9H3S7 1-714): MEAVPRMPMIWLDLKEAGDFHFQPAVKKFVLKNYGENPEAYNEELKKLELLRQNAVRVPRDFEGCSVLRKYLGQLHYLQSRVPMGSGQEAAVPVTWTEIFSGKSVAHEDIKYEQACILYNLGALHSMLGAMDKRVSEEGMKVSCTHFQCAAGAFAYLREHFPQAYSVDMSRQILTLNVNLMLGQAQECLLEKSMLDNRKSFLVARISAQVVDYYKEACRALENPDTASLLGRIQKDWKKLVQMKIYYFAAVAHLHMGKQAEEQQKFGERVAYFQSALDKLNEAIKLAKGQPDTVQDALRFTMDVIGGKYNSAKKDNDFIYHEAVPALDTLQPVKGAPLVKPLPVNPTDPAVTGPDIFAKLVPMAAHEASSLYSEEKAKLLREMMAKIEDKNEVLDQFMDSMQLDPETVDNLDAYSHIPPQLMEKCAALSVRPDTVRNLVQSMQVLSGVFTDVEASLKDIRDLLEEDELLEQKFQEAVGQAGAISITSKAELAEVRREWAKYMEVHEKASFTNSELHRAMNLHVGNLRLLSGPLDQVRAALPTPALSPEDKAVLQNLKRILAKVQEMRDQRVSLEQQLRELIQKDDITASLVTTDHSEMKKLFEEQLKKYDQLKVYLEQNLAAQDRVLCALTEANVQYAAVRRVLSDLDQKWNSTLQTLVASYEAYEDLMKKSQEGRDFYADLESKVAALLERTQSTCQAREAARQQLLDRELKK
Procedure: HD-PTPBro1-CC, HD-PTPBro1-CC F678D, and AlixBro1-V cloned into pGBKT7 were used as described previously ([Stefani et al., 2011]). UBAP1 (122–308) was cloned into pGADT7. Further deletion and missense mutations in UBAP1 as indicated were generated by standard PCR-based mutagenesis. Interactions were tested using the Matchmaker Gold system (Clontech) as described previously ([Stefani et al., 2011]) Each triplicate experiment was repeated at least three times.

[2] = target: T2, HD-PTP_(Bro1-CC) (residues 1-714), His6-tagged (UniProt Q9H3S7 1-714); experiment: SPR; ProteOn XPR36; HD-PTP constructs (50-100 ug/mL) immobilised on an HTE chip, peptides injected (50 uL at 100 uL/min); 25 C; 10 mM HEPES pH 7.4, 150 mM NaCl, 0.05% Tween 20; equilibrium binding model; conditions: both partners purified
T2 construct: HD-PTP (PTPN23), Bro1 and coiled-coil domains, residues 1-714; Precipitated by an anti-His antibody in the co-immunoprecipitation; immobilised on an HTE chip in SPR; also called His6-HD-PTP_(Bro1-CC); source: E. coli BL21(DE3), purified (nickel beads, Mono Q anion exchange, Superdex200)
T2 sequence (looked up): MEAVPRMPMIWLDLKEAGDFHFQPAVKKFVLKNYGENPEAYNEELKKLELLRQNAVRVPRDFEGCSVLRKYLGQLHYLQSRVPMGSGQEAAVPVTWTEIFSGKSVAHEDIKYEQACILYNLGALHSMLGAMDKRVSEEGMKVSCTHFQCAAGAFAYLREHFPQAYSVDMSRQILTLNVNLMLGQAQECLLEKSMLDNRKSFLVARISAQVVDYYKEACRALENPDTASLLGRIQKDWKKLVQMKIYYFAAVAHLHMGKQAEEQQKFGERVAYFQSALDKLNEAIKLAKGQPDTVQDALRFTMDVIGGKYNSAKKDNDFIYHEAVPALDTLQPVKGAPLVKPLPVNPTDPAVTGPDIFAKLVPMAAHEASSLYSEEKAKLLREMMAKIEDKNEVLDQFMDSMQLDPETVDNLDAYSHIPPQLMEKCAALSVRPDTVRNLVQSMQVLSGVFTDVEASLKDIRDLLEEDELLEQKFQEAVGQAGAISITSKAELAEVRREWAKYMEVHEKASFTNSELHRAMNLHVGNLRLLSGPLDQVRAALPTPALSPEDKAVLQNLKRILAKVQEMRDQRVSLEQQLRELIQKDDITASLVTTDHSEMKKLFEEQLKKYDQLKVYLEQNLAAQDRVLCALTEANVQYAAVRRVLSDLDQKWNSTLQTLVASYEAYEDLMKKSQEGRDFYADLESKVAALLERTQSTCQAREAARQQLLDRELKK

[3] = target: T3, HD-PTPCC (coiled-coil domain of HD-PTP, residues 363-712) (UniProt Q9H3S7 363-712); experiment: as above; conditions: both partners purified
T3 construct: HD-PTP (His domain protein tyrosine phosphatase; PTPN23), coiled-coil domain, residues 363-712; Form used in the biosensor (SPR) and NMR experiments; immobilisation was on an HTE chip, which probably captures the His tag (surmise); also called CC domain of HD-PTP; WT HD-PTPCC; source: E. coli BL21(DE3), purified (nickel beads, Mono Q anion exchange, Superdex200)
T3 sequence (looked up): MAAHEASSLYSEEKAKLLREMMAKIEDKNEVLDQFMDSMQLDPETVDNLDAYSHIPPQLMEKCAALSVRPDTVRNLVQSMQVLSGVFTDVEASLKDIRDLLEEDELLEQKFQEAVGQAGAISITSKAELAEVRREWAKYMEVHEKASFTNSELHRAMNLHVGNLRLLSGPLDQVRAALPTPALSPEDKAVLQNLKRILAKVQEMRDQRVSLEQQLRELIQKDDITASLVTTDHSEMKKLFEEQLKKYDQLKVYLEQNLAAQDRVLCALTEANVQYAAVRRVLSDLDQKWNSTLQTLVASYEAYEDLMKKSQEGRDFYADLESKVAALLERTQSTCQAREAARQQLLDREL

CO[C@H]1C[C@@H]2CC[C@@H](C)[C@@](O)(O2)C(=O)C(=O)N2CCCC[C@H]2C(=O)O[C@H]([C@H](C)C[C@@H]2CC[C@@H](O)[C@H](OC)C2)CC(=O)[C@H](C)/C=C(\C)[C@@H](O)[C@@H](OC)C(=O)[C@H](C)C[C@H](C)/C=C/C=C/C=C/1C [rapamycin, reference compound]
relocalization of HD-PTPBro1-CC to mitochondria ([1]; FKBP-HD-PTPBro1-CC with mito-FRB): efficient relocalization

residues 260–269: minimal region of UBAP1 for effective binding to HD-PTP (VSNIKSLSFP; UniProt Q9NZ09 260-269, looked up, fragment)
Y2H binding to HD-PTP (HD-PTPBro1-CC): minimal region for effective binding

B1: UBAP1C (UBAP1 peptide containing residues 261-280) (peptide, UniProt Q9NZ09 261-280, looked up)
peptide: SNIKSLSFPKLDSDDSNQKT
notes: also called UBAP1C peptide
Kd [2]: 31.9 ± 0.85 µM | Kd [3]: 66.3 ± 0.35 µM

B2: UBAP1-GFP: UBAP1 GFP fusion, wild-type (protein)
chain: MASKKLGADFHGTFSYLDDVPFKTGDKFKTPAKVGLPIGFSLPDCLQVVREVQYDFSLEKKTIEWAEEIKKIEEAEREAECKIAEAEAKVNSKSGPEGDSKMSFSKTHSTATMPPPINPILASLQHNSILTPTRVSSSATKQKVLSPPHIKADFNLADFECEEDPFDNLELKTIDEKEELRNILVGTTGPIMAQLLDNNLPRGGSGSVLQDEEVLASLERATLDFKPLHKPNGFITLPQLGNCEKMSLSSKVSLPPIPAVSNIKSLSFPKLDSDDSNQKTAKLASTFHSTSCLRNGTFQNSLKPSTQSSASELNGHHTLGLSALNLDSGTEMPALTSSQMPSLSVLSVCTEESSPPNTGPTVTPPNFSVSQVPNMPSCPQAYSELQMLSPSERQCVETVVNMGYSYECVLRAMKKKGENIEQILDYLFAHGQLCEKGFDPLLVEEALEMHQCSEEKMMEFLQLMSKFKEMGFELKDIKEVLLLHNNDQDNALEDLMARAGAS
modifications: left off: GFP, end not stated, kept
notes: UBAP1 GFP fusion, wild-type
relocation to mitochondria with HD-PTPBro1-CC [1]: relocated to mitochondria; also recorded: translocates to mitochondria

B3: UBAP1-GFP F268S: UBAP1-GFP with F268S mutation (protein)
chain: MASKKLGADFHGTFSYLDDVPFKTGDKFKTPAKVGLPIGFSLPDCLQVVREVQYDFSLEKKTIEWAEEIKKIEEAEREAECKIAEAEAKVNSKSGPEGDSKMSFSKTHSTATMPPPINPILASLQHNSILTPTRVSSSATKQKVLSPPHIKADFNLADFECEEDPFDNLELKTIDEKEELRNILVGTTGPIMAQLLDNNLPRGGSGSVLQDEEVLASLERATLDFKPLHKPNGFITLPQLGNCEKMSLSSKVSLPPIPAVSNIKSLSSPKLDSDDSNQKTAKLASTFHSTSCLRNGTFQNSLKPSTQSSASELNGHHTLGLSALNLDSGTEMPALTSSQMPSLSVLSVCTEESSPPNTGPTVTPPNFSVSQVPNMPSCPQAYSELQMLSPSERQCVETVVNMGYSYECVLRAMKKKGENIEQILDYLFAHGQLCEKGFDPLLVEEALEMHQCSEEKMMEFLQLMSKFKEMGFELKDIKEVLLLHNNDQDNALEDLMARAGAS
modifications: left off: GFP, end not stated, kept
notes: UBAP1-GFP with F268S mutation
relocation to mitochondria with HD-PTPBro1-CC [1]: not

B4: P269A: P269A mutation in UBAP1, Y2H fragment (protein, UniProt Q9NZ09 1-502, looked up, variant P269A)
Ubiquitin-associated protein 1: MASKKLGADFHGTFSYLDDVPFKTGDKFKTPAKVGLPIGFSLPDCLQVVREVQYDFSLEKKTIEWAEEIKKIEEAEREAECKIAEAEAKVNSKSGPEGDSKMSFSKTHSTATMPPPINPILASLQHNSILTPTRVSSSATKQKVLSPPHIKADFNLADFECEEDPFDNLELKTIDEKEELRNILVGTTGPIMAQLLDNNLPRGGSGSVLQDEEVLASLERATLDFKPLHKPNGFITLPQLGNCEKMSLSSKVSLPPIPAVSNIKSLSFAKLDSDDSNQKTAKLASTFHSTSCLRNGTFQNSLKPSTQSSASELNGHHTLGLSALNLDSGTEMPALTSSQMPSLSVLSVCTEESSPPNTGPTVTPPNFSVSQVPNMPSCPQAYSELQMLSPSERQCVETVVNMGYSYECVLRAMKKKGENIEQILDYLFAHGQLCEKGFDPLLVEEALEMHQCSEEKMMEFLQLMSKFKEMGFELKDIKEVLLLHNNDQDNALEDLMARAGAS
Y2H binding to HD-PTP (HD-PTPBro1-CC): no obvious effect on binding; also recorded: weaker phenotype

B5: L271A: L271A mutation in UBAP1, Y2H fragment (protein, UniProt Q9NZ09 1-502, looked up, variant L271A)
Ubiquitin-associated protein 1: MASKKLGADFHGTFSYLDDVPFKTGDKFKTPAKVGLPIGFSLPDCLQVVREVQYDFSLEKKTIEWAEEIKKIEEAEREAECKIAEAEAKVNSKSGPEGDSKMSFSKTHSTATMPPPINPILASLQHNSILTPTRVSSSATKQKVLSPPHIKADFNLADFECEEDPFDNLELKTIDEKEELRNILVGTTGPIMAQLLDNNLPRGGSGSVLQDEEVLASLERATLDFKPLHKPNGFITLPQLGNCEKMSLSSKVSLPPIPAVSNIKSLSFPKADSDDSNQKTAKLASTFHSTSCLRNGTFQNSLKPSTQSSASELNGHHTLGLSALNLDSGTEMPALTSSQMPSLSVLSVCTEESSPPNTGPTVTPPNFSVSQVPNMPSCPQAYSELQMLSPSERQCVETVVNMGYSYECVLRAMKKKGENIEQILDYLFAHGQLCEKGFDPLLVEEALEMHQCSEEKMMEFLQLMSKFKEMGFELKDIKEVLLLHNNDQDNALEDLMARAGAS
Y2H binding to HD-PTP (HD-PTPBro1-CC): no obvious effect on binding; also recorded: weaker phenotype

B6: F268S: F268S mutation in the FPXL motif of UBAP1, Y2H fragment (protein, UniProt Q9NZ09 1-502, looked up, variant F268S)
Ubiquitin-associated protein 1: MASKKLGADFHGTFSYLDDVPFKTGDKFKTPAKVGLPIGFSLPDCLQVVREVQYDFSLEKKTIEWAEEIKKIEEAEREAECKIAEAEAKVNSKSGPEGDSKMSFSKTHSTATMPPPINPILASLQHNSILTPTRVSSSATKQKVLSPPHIKADFNLADFECEEDPFDNLELKTIDEKEELRNILVGTTGPIMAQLLDNNLPRGGSGSVLQDEEVLASLERATLDFKPLHKPNGFITLPQLGNCEKMSLSSKVSLPPIPAVSNIKSLSSPKLDSDDSNQKTAKLASTFHSTSCLRNGTFQNSLKPSTQSSASELNGHHTLGLSALNLDSGTEMPALTSSQMPSLSVLSVCTEESSPPNTGPTVTPPNFSVSQVPNMPSCPQAYSELQMLSPSERQCVETVVNMGYSYECVLRAMKKKGENIEQILDYLFAHGQLCEKGFDPLLVEEALEMHQCSEEKMMEFLQLMSKFKEMGFELKDIKEVLLLHNNDQDNALEDLMARAGAS
Y2H binding to HD-PTP (HD-PTPBro1-CC): abolished binding
